Literature values in article PMC7564214.

Molecular target: LC3B (Homo sapiens) (UniProt Q9GZQ8)

TRIM5α (from UniProt Q9C035)
Kd: 100 µM
